Reference: paper PMC12622831

What was measured:
[1] = target: Dengue virus serotype 2 (ET300 strain) non-structural protein 1, untagged recombinant, expressed in suspension HEK293 cells (Dengue virus serotype 2, strain ET300); test: SEC; concentrated (about 10-fold, 520 μg/mL) NS1 expression medium, 0.5 mL on Superdex 200 increase 10/300 GL in PBS at 0.75 mL per min; NS1 in 0.25 mL fractions by ELISA and immunoblot
[2] = target: Dengue virus serotype 2 (ET300 strain) non-structural protein 1, C-terminally His-tagged, purified (Dengue virus serotype 2, strain ET300); test: SEC; purified His-tagged NS1, 0.5 mL on Superdex 200 increase 10/300 GL in PBS; fractions analysed by NS1 ELISA

| Substance | stoichiometry N [1] | stoichiometry N [2] |
| --- | --- | --- |
| Dengue virus serotype 2 (ET300 strain) non-structural protein 1, untagged recombinant, expressed in suspension HEK293 cells (natural protein) | 6 |  |
| Dengue virus serotype 2 (ET300 strain) non-structural protein 1, C-terminally His-tagged, purified (natural protein) |  | 6 |
